Source: US20240336918

Tests used:
LIN28A [1] = molecular target: T1, LIN28A (UniProt Q9H9Z2); experiment: filter; settings: transition between unbound and bound at ~10 nM; aggregates retained on PES at 50 nM and above
T1 sequence: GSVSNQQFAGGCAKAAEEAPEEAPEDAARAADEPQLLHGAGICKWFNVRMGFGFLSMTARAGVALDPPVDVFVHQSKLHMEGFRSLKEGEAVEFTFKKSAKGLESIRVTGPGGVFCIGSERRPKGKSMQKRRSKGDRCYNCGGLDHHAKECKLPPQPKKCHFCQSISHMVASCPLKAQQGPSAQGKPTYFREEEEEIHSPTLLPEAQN

LIN28A [2] = molecular target: T1, LIN28A; experiment: EMSA; settings: higher-order aggregates above 50 nM

## pre-let-7a miRNA
LIN28A [1]
  Kd: 0.01 µM
LIN28A [2]
  Kd: 0.025 µM
